According to US20140087995A1 (published 2014):
Numbered stars: 1 amine (or outer) side, 2 acyl side, 3 side chain; on linkers, the order of the positions; unused ones are H or OH. Bridge positions count the residues as written; N and C are the ends. Square brackets hold non-standard residues; d marks the D form. Side chains are listed from the residue outwards. Ends that are not written are not given here. * marks the point of attachment. C20 diacid = O=C(O)CCCCCCCCCCCCCCCCCCC(=O)*; γGlu = O=C(O)[C@H](CCC(=O)[*:2])N[*:1]

T1: human amylin receptor (amylin 3(a) receptor: human calcitonin receptor with RAMP-3) (human, UniProt P30988 25-474; O60896 24-148, limits assumed)
T1 sequence (looked up) 1: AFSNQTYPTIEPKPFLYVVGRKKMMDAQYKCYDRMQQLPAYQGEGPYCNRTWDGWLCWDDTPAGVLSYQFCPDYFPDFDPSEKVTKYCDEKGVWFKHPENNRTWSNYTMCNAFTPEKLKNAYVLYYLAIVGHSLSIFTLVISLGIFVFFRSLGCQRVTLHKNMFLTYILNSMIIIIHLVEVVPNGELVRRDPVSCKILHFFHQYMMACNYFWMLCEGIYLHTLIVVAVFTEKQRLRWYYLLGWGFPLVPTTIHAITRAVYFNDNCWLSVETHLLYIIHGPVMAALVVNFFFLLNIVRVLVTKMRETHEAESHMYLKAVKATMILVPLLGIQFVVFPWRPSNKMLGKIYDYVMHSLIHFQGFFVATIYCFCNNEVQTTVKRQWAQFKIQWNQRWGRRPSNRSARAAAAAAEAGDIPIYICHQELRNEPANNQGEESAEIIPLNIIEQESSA
T1 sequence (looked up) 2: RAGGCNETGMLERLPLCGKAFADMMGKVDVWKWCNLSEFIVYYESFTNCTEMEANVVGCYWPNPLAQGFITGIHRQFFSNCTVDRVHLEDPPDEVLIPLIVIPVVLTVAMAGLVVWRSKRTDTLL

T2: human calcitonin receptor (human, UniProt P30988 25-474)
T2 sequence (looked up): T1 sequence (looked up) 1

T3: human calcitonin receptor (human, UniProt P30988 25-474)
T3 sequence (looked up): T1 sequence (looked up) 1

T4: human amylin receptor (amylin 3(a) receptor: human calcitonin receptor with RAMP-3) (human, UniProt P30988 25-474; O60896 24-148, limits assumed)
T4 construct: whole, on cells; Whole cells in the luciferase assay (Assay II a); also called hAmylin-R; hAmylinR
T4 sequence (looked up) 1: T1 sequence (looked up) 1
T4 sequence (looked up) 2: T1 sequence (looked up) 2

B1: N^ε1-[(4S)-4-carboxy-4-[[(4S)-4-carboxy-4-(19-carboxynonadecanoylamino)butanoyl]amino]butanoyl]-[Asp14,Arg17,Pro21,Pro27,Pro34,Arg35]-h-amylin (peptide)
peptide: K([γGlu-γGlu-C20 diacid])CNTATCATQRLADFLRHSSPNFGAIPSSTNVGPRTY-NH2
modifications: disulfide 2-7; N-terminus assumed
SMILES: CC[C@H](C)[C@H](NC(=O)[C@H](C)NC(=O)CNC(=O)[C@H](Cc1ccccc1)NC(=O)[C@H](CC(N)=O)NC(=O)[C@@H]1CCCN1C(=O)[C@H](CO)NC(=O)[C@H](CO)NC(=O)[C@H](Cc1c[nH]cn1)NC(=O)[C@H](CCCNC(=N)N)NC(=O)[C@H](CC(C)C)NC(=O)[C@H](Cc1ccccc1)NC(=O)[C@H](CC(=O)O)NC(=O)[C@H](C)NC(=O)[C@H](CC(C)C)NC(=O)[C@H](CCCNC(=N)N)NC(=O)[C@H](CCC(N)=O)NC(=O)[C@@H](NC(=O)[C@H](C)NC(=O)[C@@H]1CSSC[C@H](NC(=O)[C@@H](N)CCCCNC(=O)CC[C@H](NC(=O)CC[C@H](NC(=O)CCCCCCCCCCCCCCCCCCC(=O)O)C(=O)O)C(=O)O)C(=O)N[C@@H](CC(N)=O)C(=O)N[C@@H]([C@@H](C)O)C(=O)N[C@@H](C)C(=O)N[C@@H]([C@@H](C)O)C(=O)N1)[C@@H](C)O)C(=O)N1CCC[C@H]1C(=O)N[C@@H](CO)C(=O)N[C@@H](CO)C(=O)N[C@H](C(=O)N[C@@H](CC(N)=O)C(=O)N[C@H](C(=O)NCC(=O)N1CCC[C@H]1C(=O)N[C@@H](CCCNC(=N)N)C(=O)N[C@H](C(=O)N[C@@H](Cc1ccc(O)cc1)C(N)=O)[C@@H](C)O)C(C)C)[C@@H](C)O
notes: also called compound 130
B2: N^ε1-[(4S)-4-carboxy-4-[[(4S)-4-carboxy-4-(19-carboxynonadecanoylamino)butanoyl]amino]butanoyl]-[Glu14,Arg17,Pro21,Pro27,Pro34,Arg35]-h-amylin (peptide)
peptide: K([γGlu-γGlu-C20 diacid])CNTATCATQRLAEFLRHSSPNFGAIPSSTNVGPRTY-NH2
modifications: disulfide 2-7; N-terminus assumed
SMILES: CC[C@H](C)[C@H](NC(=O)[C@H](C)NC(=O)CNC(=O)[C@H](Cc1ccccc1)NC(=O)[C@H](CC(N)=O)NC(=O)[C@@H]1CCCN1C(=O)[C@H](CO)NC(=O)[C@H](CO)NC(=O)[C@H](Cc1c[nH]cn1)NC(=O)[C@H](CCCNC(=N)N)NC(=O)[C@H](CC(C)C)NC(=O)[C@H](Cc1ccccc1)NC(=O)[C@H](CCC(=O)O)NC(=O)[C@H](C)NC(=O)[C@H](CC(C)C)NC(=O)[C@H](CCCNC(=N)N)NC(=O)[C@H](CCC(N)=O)NC(=O)[C@@H](NC(=O)[C@H](C)NC(=O)[C@@H]1CSSC[C@H](NC(=O)[C@@H](N)CCCCNC(=O)CC[C@H](NC(=O)CC[C@H](NC(=O)CCCCCCCCCCCCCCCCCCC(=O)O)C(=O)O)C(=O)O)C(=O)N[C@@H](CC(N)=O)C(=O)N[C@@H]([C@@H](C)O)C(=O)N[C@@H](C)C(=O)N[C@@H]([C@@H](C)O)C(=O)N1)[C@@H](C)O)C(=O)N1CCC[C@H]1C(=O)N[C@@H](CO)C(=O)N[C@@H](CO)C(=O)N[C@H](C(=O)N[C@@H](CC(N)=O)C(=O)N[C@H](C(=O)NCC(=O)N1CCC[C@H]1C(=O)N[C@@H](CCCNC(=N)N)C(=O)N[C@H](C(=O)N[C@@H](Cc1ccc(O)cc1)C(N)=O)[C@@H](C)O)C(C)C)[C@@H](C)O
notes: also called compound 110
B3: N^ε1-[(4S)-4-carboxy-4-[[(4S)-4-carboxy-4-(19-carboxynonadecanoylamino)butanoyl]amino]butanoyl]-[D-Asp14,Arg17,Pro21,Pro27,Arg35]-h-amylin (peptide)
peptide: K([γGlu-γGlu-C20 diacid])CNTATCATQRLA[dD]FLRHSSPNFGAIPSSTNVGSRTY-NH2
modifications: disulfide 2-7; N-terminus assumed
SMILES: CC[C@H](C)[C@H](NC(=O)[C@H](C)NC(=O)CNC(=O)[C@H](Cc1ccccc1)NC(=O)[C@H](CC(N)=O)NC(=O)[C@@H]1CCCN1C(=O)[C@H](CO)NC(=O)[C@H](CO)NC(=O)[C@H](Cc1c[nH]cn1)NC(=O)[C@H](CCCNC(=N)N)NC(=O)[C@H](CC(C)C)NC(=O)[C@H](Cc1ccccc1)NC(=O)[C@@H](CC(=O)O)NC(=O)[C@H](C)NC(=O)[C@H](CC(C)C)NC(=O)[C@H](CCCNC(=N)N)NC(=O)[C@H](CCC(N)=O)NC(=O)[C@@H](NC(=O)[C@H](C)NC(=O)[C@@H]1CSSC[C@H](NC(=O)[C@@H](N)CCCCNC(=O)CC[C@H](NC(=O)CC[C@H](NC(=O)CCCCCCCCCCCCCCCCCCC(=O)O)C(=O)O)C(=O)O)C(=O)N[C@@H](CC(N)=O)C(=O)N[C@@H]([C@@H](C)O)C(=O)N[C@@H](C)C(=O)N[C@@H]([C@@H](C)O)C(=O)N1)[C@@H](C)O)C(=O)N1CCC[C@H]1C(=O)N[C@@H](CO)C(=O)N[C@@H](CO)C(=O)N[C@H](C(=O)N[C@@H](CC(N)=O)C(=O)N[C@H](C(=O)NCC(=O)N[C@@H](CO)C(=O)N[C@@H](CCCNC(=N)N)C(=O)N[C@H](C(=O)N[C@@H](Cc1ccc(O)cc1)C(N)=O)[C@@H](C)O)C(C)C)[C@@H](C)O
B4: N^ε1-[(4S)-4-carboxy-4-[[(4S)-4-carboxy-4-(19-carboxynonadecanoylamino)butanoyl]amino]butanoyl]-[Glu14,Arg17,Pro21,Pro27,Arg35]-h-amylin (peptide)
peptide: K([γGlu-γGlu-C20 diacid])CNTATCATQRLAEFLRHSSPNFGAIPSSTNVGSRTY-NH2
modifications: disulfide 2-7; N-terminus assumed
SMILES: CC[C@H](C)[C@H](NC(=O)[C@H](C)NC(=O)CNC(=O)[C@H](Cc1ccccc1)NC(=O)[C@H](CC(N)=O)NC(=O)[C@@H]1CCCN1C(=O)[C@H](CO)NC(=O)[C@H](CO)NC(=O)[C@H](Cc1c[nH]cn1)NC(=O)[C@H](CCCNC(=N)N)NC(=O)[C@H](CC(C)C)NC(=O)[C@H](Cc1ccccc1)NC(=O)[C@H](CCC(=O)O)NC(=O)[C@H](C)NC(=O)[C@H](CC(C)C)NC(=O)[C@H](CCCNC(=N)N)NC(=O)[C@H](CCC(N)=O)NC(=O)[C@@H](NC(=O)[C@H](C)NC(=O)[C@@H]1CSSC[C@H](NC(=O)[C@@H](N)CCCCNC(=O)CC[C@H](NC(=O)CC[C@H](NC(=O)CCCCCCCCCCCCCCCCCCC(=O)O)C(=O)O)C(=O)O)C(=O)N[C@@H](CC(N)=O)C(=O)N[C@@H]([C@@H](C)O)C(=O)N[C@@H](C)C(=O)N[C@@H]([C@@H](C)O)C(=O)N1)[C@@H](C)O)C(=O)N1CCC[C@H]1C(=O)N[C@@H](CO)C(=O)N[C@@H](CO)C(=O)N[C@H](C(=O)N[C@@H](CC(N)=O)C(=O)N[C@H](C(=O)NCC(=O)N[C@@H](CO)C(=O)N[C@@H](CCCNC(=N)N)C(=O)N[C@H](C(=O)N[C@@H](Cc1ccc(O)cc1)C(N)=O)[C@@H](C)O)C(C)C)[C@@H](C)O
notes: also called compound 89

Target: T1, human amylin receptor (amylin 3(a) …)
Assay: cell-based or functional assay

| Ratio hCT/hAmylin funct. | hAmylin-R funct. EC50 (pM) | Binder |
| --- | --- | --- |
| 5.3 | 159 | K([γGlu-γGlu-C20 diacid])CNTATCATQRLADFLRHSSPNFGAIPSSTNVGPETY-NH2 (disulfide 2-7 (inferred)) |
|  | 101 | K([γGlu-C20 diacid])CNTATCATQRLAEFLRHSSPNFGAIPSSTNVGPHTY-NH2 (disulfide 2-7 (inferred)) |
| 0.8 | 132 | K([γGlu-γGlu-C20 diacid])CNTATCATQRLAEFLRHSSPNFGAIPSSTNVGPETP-NH2 (disulfide 2-7 (inferred)) |
|  | 146 | K([γGlu-C20 diacid])CNTATCATQRLADFLRHSSPNFGAIPSSTNVGPRTY-NH2 (disulfide 2-7 (inferred)) |
|  | 172 | K([γGlu-γGlu-C20 diacid])CNTATCATQRLAEFLRHSSPNFGAIPSSTNVGPHTY-NH2 (disulfide 2-7 (inferred)) |
|  | 425 | K([γGlu-C20 diacid])CNTATCATQRLAEFLRHSSPNFGAIPSSTNVGSHTY-NH2 (disulfide 2-7 (inferred)) |
|  | 162 | K([γGlu-γGlu-C20 diacid])CNTATCATQRLADFLRHSSPNFGAIPSSTNVGPRTY-NH2 (disulfide 2-7 (inferred), also called compound 130) |
|  | 333 | K([γGlu-γGlu-C20 diacid])CNTATCATQRLANFLRHSSPNFGAIPSSTPVGPRTY-NH2 (disulfide 2-7 (inferred)) |
|  | 383 | K([γGlu-γGlu-C20 diacid])CNTATCATQRLA[dD]FLRHSSPNFGAIPSSTNVGSRTY-NH2 (disulfide 2-7 (inferred)) |

Target: T2, human calcitonin receptor
Assay: cell-based or functional assay

| hCTR funct. EC50 (pM) | Binder |
| --- | --- |
| 843 | K([γGlu-γGlu-C20 diacid])CNTATCATQRLADFLRHSSPNFGAIPSSTNVGPETY-NH2 (disulfide 2-7 (inferred)) |
| 1450 | K([γGlu-C20 diacid])CNTATCATQRLAEFLRHSSPNFGAIPSSTNVGPHTY-NH2 (disulfide 2-7 (inferred)) |
| 102 | K([γGlu-γGlu-C20 diacid])CNTATCATQRLAEFLRHSSPNFGAIPSSTNVGPETP-NH2 (disulfide 2-7 (inferred)) |
| 3640 | K([γGlu-C20 diacid])CNTATCATQRLADFLRHSSPNFGAIPSSTNVGPRTY-NH2 (disulfide 2-7 (inferred)) |
| 2830 | K([γGlu-γGlu-C20 diacid])CNTATCATQRLAEFLRHSSPNFGAIPSSTNVGPHTY-NH2 (disulfide 2-7 (inferred)) |
| 5580 | K([γGlu-C20 diacid])CNTATCATQRLAEFLRHSSPNFGAIPSSTNVGSHTY-NH2 (disulfide 2-7 (inferred)) |
| 7280 | K([γGlu-γGlu-C20 diacid])CNTATCATQRLADFLRHSSPNFGAIPSSTNVGPRTY-NH2 (disulfide 2-7 (inferred), also called compound 130) |
| 8660 | K([γGlu-γGlu-C20 diacid])CNTATCATQRLANFLRHSSPNFGAIPSSTPVGPRTY-NH2 (disulfide 2-7 (inferred)) |
| 100000 | K([γGlu-γGlu-C20 diacid])CNTATCATQRLA[dD]FLRHSSPNFGAIPSSTNVGSRTY-NH2 (disulfide 2-7 (inferred)) |

Target: T3, human calcitonin receptor
Assay: cell-based or functional assay

| Ratio hCT/hAmylin funct. [ratio] | hCTR funct. EC50 (pM) | Binder |
| --- | --- | --- |
| 44.9 | 7280 | B1 |
| 29.3 | 8160 | B2 |
|  | 100000 | B3 |
| 27.8 | 11200 | B4 |

Target: T4, human amylin receptor (amylin 3(a) …)
Assay: SPA competition binding on membranes of BHK cells with human calcitonin receptor + RAMP-3; displacement of 125I-rat amylin (Assay V)
Procedure, shortened: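 One-site competition analysis of SPA counts yielded IC₅₀ as a measure of affinity. Membranes were at 35 ng/μL final; incubation was 120 min at 25° C, pH 7.4.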

| IC50 [nM] | Binder |
| --- | --- |
| 0.453 | B1 |
| 0.326 | B2 |
| 0.365 | B3 |
| 1.16 | B4 |
